Experimental data published in US20170190775A1.
Values belong to the substance of their own block, whether it stands above or below them.

What was measured:
[1] = biological target: human TREM-1 (hTREM-1) protein (human) (UniProt Q9NP99); assay: SPR, mAb captured by anti-Fc, hTREM-1 as analyte (Example 11)
[2] = biological target: human TREM-1 on cells (human) (UniProt Q9NP99); assay: cell-based or functional assay
[3] = biological target: cynomolgus TREM-1 (cTREM-1) protein (cynomolgus monkey); assay: SPR, mAb captured by anti-Fc, cTREM-1 as analyte (Example 11)
[4] = biological target: T1, full length cynomolgus monkey (c)TREM-1 on cells (cynomolgus monkey); assay: cell-based or functional assay
T1 sequence: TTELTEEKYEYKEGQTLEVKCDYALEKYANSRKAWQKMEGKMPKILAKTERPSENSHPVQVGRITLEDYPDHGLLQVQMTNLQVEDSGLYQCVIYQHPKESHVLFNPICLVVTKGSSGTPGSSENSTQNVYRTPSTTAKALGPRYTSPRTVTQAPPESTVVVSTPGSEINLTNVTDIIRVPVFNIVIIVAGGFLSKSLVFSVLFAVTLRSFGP

Chain of recombinant human PGLYRP1 expressed from E. coli and refolded (O75594 22-196 limits assumed): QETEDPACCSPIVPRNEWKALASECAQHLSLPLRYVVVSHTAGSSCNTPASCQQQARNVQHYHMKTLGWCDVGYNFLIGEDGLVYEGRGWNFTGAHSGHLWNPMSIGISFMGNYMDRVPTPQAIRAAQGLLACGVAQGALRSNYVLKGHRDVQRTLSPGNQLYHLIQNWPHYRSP
Chain of human TREM-1 on cells (human) (Q9NP99 21-234 limits assumed): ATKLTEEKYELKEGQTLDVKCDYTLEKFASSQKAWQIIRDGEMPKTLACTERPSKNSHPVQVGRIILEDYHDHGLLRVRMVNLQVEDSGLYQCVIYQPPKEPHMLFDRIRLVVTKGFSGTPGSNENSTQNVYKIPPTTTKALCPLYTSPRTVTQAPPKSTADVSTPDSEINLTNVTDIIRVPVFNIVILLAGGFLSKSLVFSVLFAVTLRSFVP
Chain of human TREM-1 (hTREM-1) protein (human) (Q9NP99 21-200 limits assumed): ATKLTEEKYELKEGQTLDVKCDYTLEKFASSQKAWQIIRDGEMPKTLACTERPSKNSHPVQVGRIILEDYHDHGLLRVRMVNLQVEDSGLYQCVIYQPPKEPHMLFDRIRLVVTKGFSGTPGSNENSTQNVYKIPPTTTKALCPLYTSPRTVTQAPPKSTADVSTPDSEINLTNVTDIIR

Substance: HM2252 (clone 6B1, Hycult Biotech) (antibody)
Kd [1]: 3 nM
% remaining activity at 0.003 µg/ml, BWZ/hTREM-1 reporter [2]: 96%
% remaining activity at 0.03 µg/ml, BWZ/hTREM-1 reporter [2]: 122%
% remaining activity at 0.3 µg/ml, BWZ/hTREM-1 reporter [2]: 113%

Substance: MAB1278 (R&D Systems, cat. no. MAB1278) (antibody)
Kd [1]: 8 nM
BWZ/hTREM-1 reporter signal, RA synovial fluid, mAb at 0.1 ug/ml, assay 1 [2]: 829000
BWZ/hTREM-1 reporter signal, RA synovial fluid, mAb at 0.1 ug/ml, assay 2 [2]: 691000
BWZ/hTREM-1 reporter signal, RA synovial fluid, mAb at 1 ug/ml, assay 1 [2]: 1.19e+06
BWZ/hTREM-1 reporter signal, RA synovial fluid, mAb at 1 ug/ml, assay 2 [2]: 1.02e+06
BWZ/hTREM-1 reporter signal, RA synovial fluid, mAb at 10 ug/ml, assay 1 [2]: 1.08e+06
BWZ/hTREM-1 reporter signal, RA synovial fluid, mAb at 10 ug/ml, assay 2 [2]: 1.05e+06
IL-6, M2 macrophages on platebound mAb 2 µg/ml [2]: 412 pg/mL
IL-6, M2 macrophages on platebound mAb 6 µg/ml [2]: 877 pg/mL
IL-6, M2 macrophages on platebound mAb 20 µg/ml [2]: 1350 pg/mL
Luminescence, BWZ/hTREM-1 reporter cell + activated neutrophils (8.8 x 10E6 without antibody) [2]: 1e+07 luminescence
TNFa, M2 macrophages on platebound mAb 2 µg/ml [2]: 2000 pg/mL
TNFa, M2 macrophages on platebound mAb 6 µg/ml [2]: 6450 pg/mL
TNFa, M2 macrophages on platebound mAb 20 µg/ml [2]: 7750 pg/mL
fold induction of the BWZ/hTREM-1 reporter signal by platebound antibody [2]: 32 fold
induction of NFAT-driven LacZ production, 1-10 µg/ml plate bound antibody against isotype control [2]: 40 fold
normalised reporter signal, PGN-activated neutrophils (normalised signal) [2]: > 1

Substance: SAB1405121 (clone 3F5, Sigma Aldrich) (antibody)
% remaining activity at 0.003 µg/ml, BWZ/hTREM-1 reporter [2]: 104%
% remaining activity at 0.03 µg/ml, BWZ/hTREM-1 reporter [2]: 101%
% remaining activity at 0.3 µg/ml, BWZ/hTREM-1 reporter [2]: 97%

Substance: WH0054210M4 (clone 2E2, Sigma Aldrich) (antibody)
Kd [1]: 20 nM
% remaining activity at 0.003 µg/ml, BWZ/hTREM-1 reporter [2]: 98%
% remaining activity at 0.03 µg/ml, BWZ/hTREM-1 reporter [2]: 104%
% remaining activity at 0.3 µg/ml, BWZ/hTREM-1 reporter [2]: 86%

Substance: clone TREM-37 (Biolegend, cat. no. 316102) (antibody)
Kd [1]: 0.8 nM
% remaining activity at 0.003 µg/ml, BWZ/hTREM-1 reporter [2]: 98%
% remaining activity at 0.03 µg/ml, BWZ/hTREM-1 reporter [2]: 103%
% remaining activity at 0.3 µg/ml, BWZ/hTREM-1 reporter [2]: 90%
Luminescence, BWZ/hTREM-1 reporter cell + activated neutrophils (8.8 x 10E6 without antibody) [2]: 6.1e+06 luminescence
normalised reporter signal, PGN-activated neutrophils (normalised signal) [2]: > 1

Results, then the substance that gave them:

Kd [1]: 0.9 nM
Kd [3]: 4 nM
% remaining cyno TREM-1 activity at 0.74 ug/ml, reporter cell [4]: 104%
% remaining cyno TREM-1 activity at 20 ug/ml, reporter cell [4]: 87.7%
% remaining activity at 0.003 µg/ml, BWZ/hTREM-1 reporter [2]: 100%
% remaining activity at 0.03 µg/ml, BWZ/hTREM-1 reporter [2]: 124%
% remaining activity at 0.3 µg/ml, BWZ/hTREM-1 reporter [2]: 108%
Luminescence, BWZ/hTREM-1 reporter cell + activated neutrophils (8.8 x 10E6 without antibody) [2]: 9.9e+06 luminescence
normalised reporter signal, PGN-activated neutrophils (normalised signal) [2]: > 1
Substance: clone TREM-26 (Biolegend) (antibody)

TNF-α, cynomolgus M2 macrophages, PGN + PGRP-S, donor 1 [4]: 295 pg/mL
TNF-α, cynomolgus M2 macrophages, PGN + PGRP-S, donor 2 [4]: 307 pg/mL
GM-CSF, RA synovial tissue cells, PGN + PGLYRP1 (PGN alone 182) [2]: 616 pg/mL
IL-1beta, RA synovial tissue cells, PGN + PGLYRP1 (PGN alone 2419) [2]: 3770 pg/mL
IL-6, RA synovial tissue cells, PGN + PGLYRP1 (PGN alone 2057) [2]: 4190 pg/mL
IL-8, RA synovial tissue cells, PGN + PGLYRP1 (PGN alone 2575) [2]: 5510 pg/mL
MCP-1, RA synovial tissue cells, PGN + PGLYRP1 (PGN alone 273) [2]: 471 pg/mL
MIP-1beta, RA synovial tissue cells, PGN + PGLYRP1 (PGN alone 2458) [2]: 4400 pg/mL
TNFa, normoxic M2 macrophages, PGN-BS + PGLYRP1, donor 1 (PGN-BS alone 427) [2]: 728 pg/mL
TNFa, normoxic M2 macrophages, PGN-BS + PGLYRP1, donor 2 (PGN-BS alone 381) [2]: 771 pg/mL
TNFalpha, RA synovial tissue cells, PGN + PGLYRP1 (PGN alone 624) [2]: 1440 pg/mL
Substance: recombinant human PGLYRP1 expressed from E. coli and refolded (from UniProt O75594 22-196) (ligand)

Kd [1]: 30 nM
% remaining activity at 0.003 µg/ml, BWZ/hTREM-1 reporter [2]: 120%
% remaining activity at 0.03 µg/ml, BWZ/hTREM-1 reporter [2]: 134%
% remaining activity at 0.3 µg/ml, BWZ/hTREM-1 reporter [2]: 131%
Substance: sc-80394 (clone 98Z12, Santa Cruz Biotechnology) (antibody)

TNF-a release, RA synovial tissue cells + IgG4 + 1 x 10^3 Type II cells [2]: 57.9 pg/mL
TNF-a release, RA synovial tissue cells + IgG4 + 1 x 10^4 Type II cells [2]: 95 pg/mL
TNF-a release, RA synovial tissue cells + IgG4 + 1 x 10^5 Type II cells [2]: 121 pg/mL
TNF-a release, RA synovial tissue cells + IgG4 + 3 x 10^3 Type II cells [2]: 54.6 pg/mL
TNF-a release, RA synovial tissue cells + IgG4 + 3 x 10^4 Type II cells [2]: 114 pg/mL
Substance: type II PGLYRP1 on transiently transfected HEK cells (ligand)
